B1: ZNF511 (parent)
chain: HLYPADFRFDKPKKSRSPASAEAP
B2: DLC1 (parent)
chain: RDAIEALCRRLNTLNKCAVMKLEI

Variants of: B1
Assay: protein stability index of a GFP-peptide fusion (GPS, HEK-293T) (PSI 1-6); higher = more stable
Settings: c terminus: a fixed tail appended
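Further: lentivirally expressed fusions sorted by FACS into six bins by GFP to DsRed ratio, PSI derived from sequencing read proportions per bin multiplied by bin number.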

Variant	protein stability index
HLYPADFRFDKPKKSRSPAIAEAP [S20I]	2.64
HLYPADFRFDKPKKSRSPAWAEAP [S20W]	1.8
HLYPADFRFDKPKPSRSPASAEAP [K14P]	2.63
HLYPADFRFDKPKISRSPASAEAP [K14I]	2.67
HLVPADFRFDKPKKSRSPASAEAP [Y3V]	3.81
HLPPADFRFDKPKKSRSPASAEAP [Y3P]	4.73
HLIPADFRFDKPKKSRSPASAEAP [Y3I]	3.73
HLDPADFRFDKPKKSRSPASAEAP [Y3D]	4.58
NLYPADFRFDKPKKSRSPASAEAP [H1N]	4.2
PLYPADFRFDKPKKSRSPASAEAP [H1P]	4.58
HLYPADFRFDKPKKCRSPASAEAP [S15C]	2.56
HLYPADFRFDKPKKERSPASAEAP [S15E]	3.18
HLYPADFRFDKPKKLRSPASAEAP [S15L]	2.92
HLYPADFRFDKPKKKRSPASAEAP [S15K]	3.24
HLYMADFRFDKPKKSRSPASAEAP [P4M]	3.43
HLYVADFRFDKPKKSRSPASAEAP [P4V]	3.24
HLYHADFRFDKPKKSRSPASAEAP [P4H]	3.95
HLYAADFRFDKPKKSRSPASAEAP [P4A]	3.96
HLYPWDFRFDKPKKSRSPASAEAP [A5W]	1.63
HLYPGDFRFDKPKKSRSPASAEAP [A5G]	2.62
HLYPCDFRFDKPKKSRSPASAEAP [A5C]	3.06
HLYPHDFRFDKPKKSRSPASAEAP [A5H]	3.06
HLYPYDFRFDKPKKSRSPASAEAP [A5Y]	2.79
HLYPADFRFDKPKKSRSPASAKAP [E22K]	2.69
HLYPADFRFDKPKKSRSPASADAP [E22D]	2.99

Variant	protein stability index
HLYPADFRFDKPKKSRSPASANAP [E22N]	2.9
HLYPADFRFDKPKKSRSPASAYAP [E22Y]	2.34
HLYPADFRFDKPKKSRSPASAVAP [E22V]	2.7
HLYPADFRFDKPKKSRSPASARAP [E22R]	2.43
HLYPADFRFDKPKKSRSPASPEAP [A21P]	3.11
HLYPADFRFDKPKKSRSPASCEAP [A21C]	3.1
HLYPADFRFDKPKKSRSPASNEAP [A21N]	2.96
HLYPADFRFDKCKKSRSPASAEAP [P12C]	2.94
HLYPADFRFDKEKKSRSPASAEAP [P12E]	3.69
HLYPADFTFDKPKKSRSPASAEAP [R8T]	2.44
HLYPADFHFDKPKKSRSPASAEAP [R8H]	2.82
HLYPADFPFDKPKKSRSPASAEAP [R8P]	4.07
HLYPADFRFDFPKKSRSPASAEAP [K11F]	2.95
HLYPADFRFDSPKKSRSPASAEAP [K11S]	3.32
HLYPADFRFDKPKKSASPASAEAP [R16A]	3.51
HLYPADFRFDKPKKSVSPASAEAP [R16V]	2.51
HLYPADFRFDKPKKSWSPASAEAP [R16W]	3.05
HLYPADFRFDKPHKSRSPASAEAP [K13H]	2.78
HLYPADFRFDKPWKSRSPASAEAP [K13W]	2.58
HLYPADFRFDKPKKSRSPYSAEAP [A19Y]	2.69
HLYPADFRFDKPKKSRSPSSAEAP [A19S]	3.44
HLYPADFRFDKPKKSRSPRSAEAP [A19R]	2.81
HLYPADFRFDKPKKSRSPQSAEAP [A19Q]	2.56
HLYPADFRFDKPKKSRSPHSAEAP [A19H]	2.68
HLYPADFRFDKPKKSRSPASAENP [A23N]	3.1

Variant	protein stability index
HLYPADFRFDKPKKSRSPASAEQP [A23Q]	3.06
HLYPADFRFDKPKKSRSPASAECP [A23C]	2.73
HLYPADFRFGKPKKSRSPASAEAP [D10G]	2.85
HLYPADFRFPKPKKSRSPASAEAP [D10P]	2.54
HLYPADFRFDKPKKSRSCASAEAP [P18C]	2.97
HLYPADFRFDKPKKSRSQASAEAP [P18Q]	2.56
HLYPADFRFDKPKKSRSSASAEAP [P18S]	2.97
HLYPADFRFDKPKKSRYPASAEAP [S17Y]	2.29
HLYPADFRFDKPKKSRMPASAEAP [S17M]	2.77
HLYPADFRFDKPKKSRIPASAEAP [S17I]	2.03
HLYPADFRFDKPKKSRPPASAEAP [S17P]	2.83
HLYPADFREDKPKKSRSPASAEAP [F9E]	1.88
HLYPADFRDDKPKKSRSPASAEAP [F9D]	2.1
HLYPADFRTDKPKKSRSPASAEAP [F9T]	2.85
HLYPADFRFDKPKKSRSPASAEAN [P24N]	3.09
HLYPADFRFDKPKKSRSPASAEAL [P24L]	2.92
HLYPAKFRFDKPKKSRSPASAEAP [D6K]	2.22
HLYPAEFRFDKPKKSRSPASAEAP [D6E]	2.1
HLYPAHFRFDKPKKSRSPASAEAP [D6H]	3
HSYPADFRFDKPKKSRSPASAEAP [L2S]	4.63
HEYPADFRFDKPKKSRSPASAEAP [L2E]	4.73
HMYPADFRFDKPKKSRSPASAEAP [L2M]	3.35
HLYPADRRFDKPKKSRSPASAEAP [F7R]	4.22
HLYPADLRFDKPKKSRSPASAEAP [F7L]	4.49
HLYPADWRFDKPKKSRSPASAEAP [F7W]	2.09

Variants of: B2
Assay: as above
Settings: c terminus: a fixed tail appended

Variant	protein stability index
RDAIETLCRRLNTLNKCAVMKLEI [A6T]	2.35
RDAIEFLCRRLNTLNKCAVMKLEI [A6F]	3.71
RDAIELLCRRLNTLNKCAVMKLEI [A6L]	3.11
RDAIEELCRRLNTLNKCAVMKLEI [A6E]	1.64
RDAIEDLCRRLNTLNKCAVMKLEI [A6D]	1.41
RDAIEGLCRRLNTLNKCAVMKLEI [A6G]	3.12
RDAIEYLCRRLNTLNKCAVMKLEI [A6Y]	1.73
RDAIESLCRRLNTLNKCAVMKLEI [A6S]	3.05
RDAIEKLCRRLNTLNKCAVMKLEI [A6K]	2.82
RDAIEPLCRRLNTLNKCAVMKLEI [A6P]	3.8
RDAIEHLCRRLNTLNKCAVMKLEI [A6H]	3.17
RDAIEMLCRRLNTLNKCAVMKLEI [A6M]	2.97
RDAIECLCRRLNTLNKCAVMKLEI [A6C]	3.07
RDAIENLCRRLNTLNKCAVMKLEI [A6N]	2.69
RDAIERLCRRLNTLNKCAVMKLEI [A6R]	2.92
RDAKEALCRRLNTLNKCAVMKLEI [I4K]	2.37
RDAAEALCRRLNTLNKCAVMKLEI [I4A]	1.76
RDALEALCRRLNTLNKCAVMKLEI [I4L]	2.59
RDANEALCRRLNTLNKCAVMKLEI [I4N]	2.4
RDATEALCRRLNTLNKCAVMKLEI [I4T]	2.24
RDAHEALCRRLNTLNKCAVMKLEI [I4H]	2.44
RDAMEALCRRLNTLNKCAVMKLEI [I4M]	2.53
RDAQEALCRRLNTLNKCAVMKLEI [I4Q]	2.12

Variant	protein stability index
RDAEEALCRRLNTLNKCAVMKLEI [I4E]	1.44
RDAFEALCRRLNTLNKCAVMKLEI [I4F]	3.05
RDAVEALCRRLNTLNKCAVMKLEI [I4V]	3.39
RDACEALCRRLNTLNKCAVMKLEI [I4C]	2.22
RDADEALCRRLNTLNKCAVMKLEI [I4D]	2.67
RDAREALCRRLNTLNKCAVMKLEI [I4R]	2.41
RDAIVALCRRLNTLNKCAVMKLEI [E5V]	1.97
RDAIHALCRRLNTLNKCAVMKLEI [E5H]	2.47
RDAIAALCRRLNTLNKCAVMKLEI [E5A]	2.3
RDAIPALCRRLNTLNKCAVMKLEI [E5P]	3.06
RDAISALCRRLNTLNKCAVMKLEI [E5S]	1.83
RDAIRALCRRLNTLNKCAVMKLEI [E5R]	2.97
RDAICALCRRLNTLNKCAVMKLEI [E5C]	2.39
RDAIWALCRRLNTLNKCAVMKLEI [E5W]	2.13
RDAIYALCRRLNTLNKCAVMKLEI [E5Y]	2.23
RDAIIALCRRLNTLNKCAVMKLEI [E5I]	2.84
RDAIMALCRRLNTLNKCAVMKLEI [E5M]	3.42
RDAILALCRRLNTLNKCAVMKLEI [E5L]	3.21
RDAIEALMRRLNTLNKCAVMKLEI [C8M]	3.9
RDAIEALKRRLNTLNKCAVMKLEI [C8K]	1.84
RDAIEALRRRLNTLNKCAVMKLEI [C8R]	1.41
RDAIEALWRRLNTLNKCAVMKLEI [C8W]	4.11
RDAIEALFRRLNTLNKCAVMKLEI [C8F]	2.82

Variant	protein stability index
RDAIEALHRRLNTLNKCAVMKLEI [C8H]	2.7
RDAIEALDRRLNTLNKCAVMKLEI [C8D]	2
RDAIEALLRRLNTLNKCAVMKLEI [C8L]	2.33
RDAIEALIRRLNTLNKCAVMKLEI [C8I]	4.17
RDAIEALNRRLNTLNKCAVMKLEI [C8N]	2.35
RDAIEALGRRLNTLNKCAVMKLEI [C8G]	3.13
RDAIEALVRRLNTLNKCAVMKLEI [C8V]	2.73
RDAIEALYRRLNTLNKCAVMKLEI [C8Y]	3.24
RDAIEALQRRLNTLNKCAVMKLEI [C8Q]	1.07
RDAIEALSRRLNTLNKCAVMKLEI [C8S]	1.39
RDAIEALTRRLNTLNKCAVMKLEI [C8T]	1.46
RDAIEALARRLNTLNKCAVMKLEI [C8A]	2.37
RDAIEALPRRLNTLNKCAVMKLEI [C8P]	2.04
RDAIEATCRRLNTLNKCAVMKLEI [L7T]	2.46
RDAIEAHCRRLNTLNKCAVMKLEI [L7H]	1.31
RDAIEARCRRLNTLNKCAVMKLEI [L7R]	2.13
RDAIEAKCRRLNTLNKCAVMKLEI [L7K]	2.16
RDAIEAGCRRLNTLNKCAVMKLEI [L7G]	2.13
RDAIEADCRRLNTLNKCAVMKLEI [L7D]	2.13
RDAIEAMCRRLNTLNKCAVMKLEI [L7M]	3.54
RDAIEAFCRRLNTLNKCAVMKLEI [L7F]	2.12
RDAIEASCRRLNTLNKCAVMKLEI [L7S]	1.78
RDAIEAYCRRLNTLNKCAVMKLEI [L7Y]	1.81

Variant	protein stability index
RDAIEAECRRLNTLNKCAVMKLEI [L7E]	1.02
RDAIEACCRRLNTLNKCAVMKLEI [L7C]	1.97
RDAIEAACRRLNTLNKCAVMKLEI [L7A]	2.37
RDAIEANCRRLNTLNKCAVMKLEI [L7N]	2.5
RDAIEAVCRRLNTLNKCAVMKLEI [L7V]	2.36
RDAIEAPCRRLNTLNKCAVMKLEI [L7P]	2.31
RDAIEAQCRRLNTLNKCAVMKLEI [L7Q]	2.41
RDNIEALCRRLNTLNKCAVMKLEI [A3N]	3.61
RDVIEALCRRLNTLNKCAVMKLEI [A3V]	3.3
RDMIEALCRRLNTLNKCAVMKLEI [A3M]	3.33
RDYIEALCRRLNTLNKCAVMKLEI [A3Y]	2.37
RDEIEALCRRLNTLNKCAVMKLEI [A3E]	1.48
RDGIEALCRRLNTLNKCAVMKLEI [A3G]	2.33
RDCIEALCRRLNTLNKCAVMKLEI [A3C]	3.99
RDIIEALCRRLNTLNKCAVMKLEI [A3I]	2.5
RDQIEALCRRLNTLNKCAVMKLEI [A3Q]	2.95
RDKIEALCRRLNTLNKCAVMKLEI [A3K]	2.7
RMAIEALCRRLNTLNKCAVMKLEI [D2M]	3.99
RSAIEALCRRLNTLNKCAVMKLEI [D2S]	3.79
RPAIEALCRRLNTLNKCAVMKLEI [D2P]	3.08
RIAIEALCRRLNTLNKCAVMKLEI [D2I]	2.03
REAIEALCRRLNTLNKCAVMKLEI [D2E]	3.12
RAAIEALCRRLNTLNKCAVMKLEI [D2A]	2.4

Variant	protein stability index
RGAIEALCRRLNTLNKCAVMKLEI [D2G]	3.23
RWAIEALCRRLNTLNKCAVMKLEI [D2W]	4.44
RQAIEALCRRLNTLNKCAVMKLEI [D2Q]	2.74
RHAIEALCRRLNTLNKCAVMKLEI [D2H]	1.94
NDAIEALCRRLNTLNKCAVMKLEI [R1N]	1.64
EDAIEALCRRLNTLNKCAVMKLEI [R1E]	2.47
SDAIEALCRRLNTLNKCAVMKLEI [R1S]	3.94
IDAIEALCRRLNTLNKCAVMKLEI [R1I]	2.9
KDAIEALCRRLNTLNKCAVMKLEI [R1K]	2.23
QDAIEALCRRLNTLNKCAVMKLEI [R1Q]	3.23
MDAIEALCRRLNTLNKCAVMKLEI [R1M]	3.94
CDAIEALCRRLNTLNKCAVMKLEI [R1C]	2.52
HDAIEALCRRLNTLNKCAVMKLEI [R1H]	3.12
YDAIEALCRRLNTLNKCAVMKLEI [R1Y]	2.99
VDAIEALCRRLNTLNKCAVMKLEI [R1V]	3.38
GDAIEALCRRLNTLNKCAVMKLEI [R1G]	2.35
LDAIEALCRRLNTLNKCAVMKLEI [R1L]	2.02
PDAIEALCRRLNTLNKCAVMKLEI [R1P]	2.85
DDAIEALCRRLNTLNKCAVMKLEI [R1D]	2.4
RDAIEALCDRLNTLNKCAVMKLEI [R9D]	2.25
RDAIEALCCRLNTLNKCAVMKLEI [R9C]	3.38

Reference: the supplement of paper PMC10567573
